Key:
human FcγIII = human FcγIII (human, UniProt P08637 17-254); assay: cell-based or functional assay
[1] = biological target: T1, potassium two pore domain channel subfamily K member 9 (KCNK9) (human, UniProt Q9NPC2 1-374); assay: flow cytometry of KCNK9-expressing cells, anti-human Fc PE secondary
T1 construct: whole, on cells; also called human KCNK9
From the text: After antibody sequence analysis and structure modeling, the murine antibody CDRs (SEQ ID NOs: 3-8) were grafted into human antibody VK3-11 and VH1-3 frameworks. Critical murine antibody framework residues that support CDR conformation were identified and introduced into the human frameworks. Five variants of the humanized VH sequences (VH1-5; SEQ ID NOs: 9-13) and three variants of the humanized VL variants (VL1-3; SEQ ID NOs: 14-16) were designed and synthesized. All of the variable regions were cloned into a human IgG1 expression vector. The VHs and VLs were cross-matched to generate 15 humanized KCNK9 antibody clones. All humanized antibodies were produced by transient transfection in 293 cells and purified by Protein A chromatography. Antigen binding of the humanized KCNK9 antibodies was characterized by immunofluorescence staining of KCNK9-expressing cells.

[2] = biological target: T1, potassium two pore domain channel …; assay: flow cytometry on induced KCNK9-expressing HEK293 cells, anti-human Fc FITC secondary
From the text: An anti-KCNK9 mouse monoclonal antibody having a VH amino acid sequence of SEQ ID NO: 1 and a VL amino acid sequence of SEQ ID NO: 2 (mu-mAb) was humanized using a method based on Queen et al., Proc. Natl. Acad. Sci. USA, 86: 10029-10033 (1989). The hybridoma antibody was sequenced after amplifying the antibody variable regions by RT-PCR with degenerate primers. The variable regions were fused with the human antibody IgG1 constant regions to produce a chimeric antibody. Antigen binding of the chimeric antibody was confirmed by staining of the KCNK9-expressing cells. HEK293 cells were stably transfected with KCNK9 expression vector under the tetracycline inducible promoter. After induction, the cells were incubated with various concentrations of chimeric KCNK9 antibody for 30 minutes, followed by secondary anti-human Fc FITC conjugate. Chimeric antibody binding was analyzed by flow cytometry.

T1 sequence (Q9NPC2 whole entry, the tested form may be a part): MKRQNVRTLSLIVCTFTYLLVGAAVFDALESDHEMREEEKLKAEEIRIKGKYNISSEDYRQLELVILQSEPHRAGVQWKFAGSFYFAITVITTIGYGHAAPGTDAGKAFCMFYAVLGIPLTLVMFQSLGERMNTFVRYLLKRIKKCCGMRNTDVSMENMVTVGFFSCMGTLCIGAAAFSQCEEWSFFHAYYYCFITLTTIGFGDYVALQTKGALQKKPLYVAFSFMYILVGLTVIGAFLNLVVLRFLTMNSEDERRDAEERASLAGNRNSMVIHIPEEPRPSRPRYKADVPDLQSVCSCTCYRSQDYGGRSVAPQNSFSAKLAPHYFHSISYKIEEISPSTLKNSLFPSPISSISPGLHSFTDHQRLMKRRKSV
Chain of human FcγIII (P08637 17-254): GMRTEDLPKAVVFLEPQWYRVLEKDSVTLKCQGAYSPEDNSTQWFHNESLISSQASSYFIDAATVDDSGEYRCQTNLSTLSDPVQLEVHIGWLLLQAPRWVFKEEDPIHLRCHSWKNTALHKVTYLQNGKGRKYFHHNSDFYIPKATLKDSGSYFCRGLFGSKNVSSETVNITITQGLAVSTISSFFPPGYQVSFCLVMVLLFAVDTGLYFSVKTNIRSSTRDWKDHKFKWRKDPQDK

ADCC activity (lysis of KCNK9-expressing HEK293 target cells by NK92-3F9 effector cells) (human FcγIII) [fold] | binding result [1] | Binder | also measured
100 | – | afucosyl humanized KCNK9 monoclonal antibody AF-H4L3 (antibody, V domains shown, afucosyl N-glycan on the Fc region (made in fut8-/- CHO cells)) VH: QVQLVQSGAEVKKPGASVKVSCKASGYSFTGYYMYWVRQAPGQRLEWMGEINPSSGGTTYNQKFKARVTLTVDKSASTAYMELSSLRSEDTAVYYCARSGLRRRFYAMDYWGQGTLVTVSS VL: EIVLTQSPATLSLSPGERATLSCRASESVDSFGTTFMHWYQQKPGQPPRLLIYRASNLESGIPARFSGSGSRTDFTLTISSLEPEDFATYYCQQSNKDPPTFGGGTKVEIK | –
100 | – | afucosyl humanized KCNK9 monoclonal antibody AF-H5L2 (antibody, V domains shown, afucosyl N-glycan on the Fc region (made in fut8-/- CHO cells)) VH: QVQLVQSGAEVKKPGASVKVSCKASGYSFTGYYMYWVRQAPGQRLEWIGEINPSSGGTTYNQKFKARATLTVDKSASTAYMELSSLRSEDTAVYYCARSGLRRRFYAMDYWGQGTLVTVSS VL: EIVLTQSPATLSLSPGERATLSCRASESVDSFGTTFMHWYQQKPGQAPRLLIYRASNLESGIPARFSGSGSRTDFTLTISSLEPEDFAVYYCQQSNKDPPTFGGGTKVEIK | –
– | binds | humanized KCNK9 antibody clone H4L3 (antibody, V domains shown, Variable regions cloned into a human IgG1 expression vector; produced in 293 cells) VH: QVQLVQSGAEVKKPGASVKVSCKASGYSFTGYYMYWVRQAPGQRLEWMGEINPSSGGTTYNQKFKARVTLTVDKSASTAYMELSSLRSEDTAVYYCARSGLRRRFYAMDYWGQGTLVTVSS VL: EIVLTQSPATLSLSPGERATLSCRASESVDSFGTTFMHWYQQKPGQPPRLLIYRASNLESGIPARFSGSGSRTDFTLTISSLEPEDFATYYCQQSNKDPPTFGGGTKVEIK | –
– | binds | humanized KCNK9 antibody clone H5L2 (antibody, V domains shown, Variable regions cloned into a human IgG1 expression vector; produced in 293 cells) VH: QVQLVQSGAEVKKPGASVKVSCKASGYSFTGYYMYWVRQAPGQRLEWIGEINPSSGGTTYNQKFKARATLTVDKSASTAYMELSSLRSEDTAVYYCARSGLRRRFYAMDYWGQGTLVTVSS VL: EIVLTQSPATLSLSPGERATLSCRASESVDSFGTTFMHWYQQKPGQAPRLLIYRASNLESGIPARFSGSGSRTDFTLTISSLEPEDFAVYYCQQSNKDPPTFGGGTKVEIK | –
– | – | chimeric KCNK9 antibody (antibody, V domains shown, Variable regions of the mouse anti-KCNK9 monoclonal antibody (mu-mAb) fused with human antibody IgG1 constant regions; also called chimeric antibody; chimeric KCNK9 monoclonal antibody) VH: EVQLQQSGPELVKPGASVKTSCKASGYSFTGYYMYWVKQSPEKSLEWIGEINPSSGGTTYNQKFKAKATLTVDKSSSTAYMQLKSLTFEDSAVYYCARSGLRRRFYAMDYWGQGTSVTVSS VL: DIVLTQSPASLAVSLGQRATVSCRASESVDSFGTTFMHWYQQKPGQPPKLLIYRASNLESGIPARFSGSGSRTDFTLTINPVEADDVATYYCQQSNKDPPTFGGGSKLEIK | EC50 [2]: ~0.3 mg/L

Reference: patent US20230220067A1 (Johns Hopkins, published 2023)
